According to the supplement of paper PMC10724198:
± gives the standard deviation of the averaged measurements.

What follows are sequences tested on Saccharomyces cerevisiae (assay: protein stability index of tFT-peptide fusion (C-terminal peptide) (PSI (0-1 scale)); higher = more stable (slower turnover)). Conditions: genetic background: wild type; temperature: 30 C.
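Further: PSI is a weighted mean of sequencing reads over stability bins, variants kept only with over 10 reads, mCherry proximal and sfGFP distal, peptide attached via GGGS linker.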

In order of falling protein stability index:
1. RGSWSDEFWREG  0.84 ± 0.056
2. RLFRRSPTPALR  0.8 ± 0.067
3. RKNNKKKENKKK  0.7954 ± 0.0014
4. RIRRITAGRQRY  0.793 ± 0.067
5. RLPVPAAFSSSI  0.79 ± 0.047
6. RFLPALSRSLPS  0.782 ± 0.11
7. RHPTHPVSSLNP  0.777 ± 0.05
8. RDPERYAQLTAP  0.776 ± 0.0086
9. RAPRSPPPPALA  0.77114 ± 0.00071
10. RGRCLGAESRGG  0.767 ± 0.069
11. RCWEWADWPRDG  0.764 ± 0.029
12. RGEARDARGLEW  0.763 ± 0.12
13. REKKDGKLSTTR  0.761 ± 0.045
14. RKISLNSPPRES  0.757 ± 0.1
15. RLKGSPHPVFLY  0.753 ± 0.055
16. RFCVTASDLREF  0.751 ± 0.057
17. RGRRRAADRSLR  0.749 ± 0.14
18. RKATGVLQVQDY  0.749 ± 0.14
19. RKKRNKQENETK  0.748 ± 0.013
20. REKEKMRVVGMT  0.746 ± 0.036
21. RGPGKKQIISQK  0.741 ± 0.02
22. RIRVKSLAPSPS  0.74 ± 0.17
23. RGPAFAQPLPFL  0.738 ± 0.034
24. RLPTRRSALMGL  0.738 ± 0.043
25. RCNKETKNKDVL  0.7348 ± 0.0054
26. RGIILSSSGFVW  0.735 ± 0.012
27. RFGWRRGRVGSS  0.734 ± 0.038
28. RAALEAPGCIQV  0.73316 ± 3e-05
29. RCSNWFVGFCPF  0.733 ± 0.062
30. RLSSVPSRSLPA  0.733 ± 0.096
31. QRMKHQKVTSNP  0.732 ± 0.06
32. RNCELQSLSSTL  0.732 ± 0.036
33. RLKFMTGLFLWS  0.73 ± 0.019
34. RFAEEDFIVERT  0.727 ± 0.019
35. RGGPSPAASSRG  0.725 ± 0.057
36. RLRPRRNMIDHA  0.724 ± 0.057
37. RLVFSSCLNALF  0.724 ± 0.073
38. RCTQCFSPFSTD  0.7221 ± 0.0052
39. REWCSGGPCAAS  0.721 ± 0.043
40. RGHKATNICHSV  0.721 ± 0.042
41. RKGKARKKQKRI  0.721 ± 0.1
42. RKKRNKTKIEKR  0.719 ± 0.021
43. QSAPWPSPLSFS  0.718 ± 0.019
44. RGRAPLRRPPGP  0.717 ± 0.048
45. QTPNRTPIRPPP  0.716 ± 0.0093
46. RGAPLSPPPPRS  0.714 ± 0.13
47. RGRSLPIPHTFP  0.714 ± 0.085
48. RFPPFSFAPCLI  0.712 ± 0.035
49. RGKRGRRGDEAG  0.712 ± 0.093
50. RGGGPTGARPAM  0.711 ± 0.1
51. RGRLCRESGSRS  0.711 ± 0.033
52. RCAWSEVFEGCG  0.71 ± 0.021
53. RGEVGKVRGPGT  0.71 ± 0.052
54. RGGASGPFVWAG  0.71 ± 0.057
55. RGRAGTRGVVEK  0.71 ± 0.024
56. RITWRSKKGLVI  0.71 ± 0.031
57. RKFGQRQKRECN  0.7085 ± 0.0066
58. RLRRCPWLRAWR  0.7086 ± 0.005
59. QVVLCCAIDKNT  0.708 ± 0.082
60. QYSDRQGGRATD  0.708 ± 0.015
61. RDGIMTDDKRIS  0.707 ± 0.035
62. REVLYCTSMLQD  0.707 ± 0.038
63. RCRKVSTISRFK  0.7053 ± 0.002
64. RKKKNQKHKKKN  0.705 ± 0.026
65. RLFSFPPPPTPP  0.705 ± 0.011
66. RATTNKRIRVEL  0.704 ± 0.011
67. RLFTLVPIGPFM  0.704 ± 0.055
68. RGGEGVWVVGRV  0.703 ± 0.075
69. RHLALSRPTPFP  0.703 ± 0.04
70. RARRYNRQSTPT  0.702 ± 0.023
71. RKKHSHKKAKKK  0.702 ± 0.014
72. RLASPSIISSTL  0.702 ± 0.0076
73. RAPDFYPTHPLA  0.701 ± 0.057
74. REKKDKKNSKKI  0.701 ± 0.022
75. RCLGSTCRFFTF  0.7 ± 0.065
76. RKIQNASLGRGA  0.7 ± 0.037
77. RHYKNKGQTRVR  0.699 ± 0.051
78. RLGGGGVGGAGV  0.699 ± 0.019
79. RLGYSWGECPGG  0.699 ± 0.012
80. RGLVRLIRGGYN  0.698 ± 0.18
81. RLLGRPFRHERG  0.698 ± 0.043
82. RNDAARLLGESG  0.698 ± 0.018
83. RGVRLGPSVVVG  0.696 ± 0.051
84. RKKKSNLMDDDD  0.696 ± 0.031
85. RDRTVGLLEGTA  0.695 ± 0.085
86. RGGERAGETAGQ  0.695 ± 0.053
87. RHSCLRFPPLHL  0.694 ± 0.1
88. RIEEQMIKNEWE  0.6932 ± 0.0047
89. RLSSLSSPPPAF  0.693 ± 0.07
90. REDSGGVNWGRC  0.692 ± 0.039
91. RIPIGDSHIALK  0.692 ± 0.1
92. RDRAPLLNLACL  0.689 ± 0.074
93. RGPGSNGSLPWF  0.689 ± 0.056
94. QSNQEETRQDGT  0.687 ± 0.0084
95. QSPPILVPSSDV  0.686 ± 0.067
96. RLGLVVRPCSPP  0.6864 ± 0.0015
97. RKSSAGLERATG  0.685 ± 0.018
98. RLPSLTGLELFS  0.685 ± 0.025
99. RASPFPAMSAQV  0.684 ± 0.023
100. RDLRGGIADSAG  0.684 ± 0.086
101. REEMASGGCIIR  0.6845 ± 0.0039
102. RFAGCFSFFRAA  0.683 ± 0.035
103. RLYGILLLSGKE  0.683 ± 0.019
104. RMSLGLHGVMRC  0.683 ± 0.045
105. QSNEHVRQSETS  0.682 ± 0.03
106. RDSDSSLRHNSH  0.682 ± 0.061
107. REYGVKRIEIKQ  0.682 ± 0.04
108. RGGRGGPGWVAG  0.681 ± 0.025
109. RLETKNITRKHI  0.681 ± 0.018
110. RLSGWGLGVWQE  0.681 ± 0.042
111. RCAQKSMALLSD  0.68 ± 0.0097
112. RCYTLFLGRSRV  0.68037 ± 0.00022
113. RDMCVFSGGSGV  0.68 ± 0.048
114. RETGTSVEQVRT  0.68 ± 0.036
115. RLSVRPGPLRLL  0.68 ± 0.025
116. REMKGKLHEHRK  0.6792 ± 0.0029
117. RGCSGGVVDWIG  0.679 ± 0.017
118. RGTVPHSLDLYL  0.679 ± 0.025
119. RLGGGGVGVAGV  0.679 ± 0.00083
120. RGMGPGAFVSGQ  0.677 ± 0.077
121. QWSNSRPVGLTG  0.676 ± 0.017
122. RFGRGAGGGLGG  0.6763 ± 0.0013
123. RIGELRYATQMK  0.676 ± 0.052
124. RKAPLLFSLSHK  0.6761 ± 0.0031
125. REERSRQSLVKW  0.675 ± 0.06
126. RHSHSLSITHLP  0.675 ± 0.091
127. QVRTWGGCWGRG  0.674 ± 0.0083
128. RLCDAAVGPEGG  0.674 ± 0.05
129. RLVLTHVSRCWQ  0.673 ± 0.065
130. REAGGSQVKRRL  0.671 ± 0.12
131. RFPVLRFPASFL  0.669 ± 0.048
132. RGSVDGTLQKPG  0.6691 ± 0.00087
133. RKICVEDIKESI  0.669 ± 0.013
134. RCGRGVAAEWLS  0.668 ± 0.06
135. RFDFSVTPHLGF  0.668 ± 0.036
136. RKEKNRKEKSIQ  0.668 ± 0.013
137. QTVSISGVPDGF  0.6669 ± 0.001
138. RLVRSPSRFSWR  0.667 ± 0.031
139. QVFVRRSSPRVL  0.666 ± 0.014
140. RIRGGVLYKGVG  0.666 ± 0.016
141. RKLDRDLTPESF  0.666 ± 0.048
142. RKNEKKKKKNKK  0.6645 ± 0.0024
143. RLPPALRRNAPP  0.665 ± 0.18
144. RGPELDRRLPLC  0.663 ± 0.03
145. RFALSCITPCIL  0.661 ± 0.069
146. RGAGRTHCLRAP  0.6613 ± 0.0055
147. RALPLLPLPRLS  0.66 ± 0.024
148. REVSGLTIRMVR  0.659 ± 0.03
149. RGGGWGRKVSVG  0.659 ± 0.095
150. RKYGWSGIGCRA  0.659 ± 0.016
151. RCSKFRKFFKHR  0.6565 ± 0.0031
152. RLGGRGGRLGAE  0.655 ± 0.0068
153. RGAHPCLDLRSE  0.654 ± 0.067
154. RKNQGKKREPRA  0.653 ± 0.079
155. RGCRVMATGVGV  0.651 ± 0.022
156. RKEEEGNYWNRI  0.651 ± 0.02
157. QTKSLLTPLLNL  0.65 ± 0.018
158. REGYGVGRERGD  0.649 ± 0.017
159. RALALVHRQRVG  0.648 ± 0.096
160. RFAWLPAPGRIV  0.647 ± 0.015
161. RGRKEQSKKKKE  0.647 ± 0.13
162. QSRERDGSIRNP  0.644 ± 0.021
163. RFEFFHLVSWLL  0.644 ± 0.052
164. RGVETGRGREKE  0.643 ± 0.046
165. RLSIEVREWGDG  0.642 ± 0.075
166. RGSTLPRRVRLK  0.641 ± 0.042
167. RLSGRRLVNYRP  0.641 ± 0.036
168. RMLVNKLSAFFI  0.64 ± 0.053
169. RGRMGLGSPGGG  0.639 ± 0.06
170. QVAIEKTTHVQE  0.637 ± 0.13
171. QRRARVSDISVY  0.634 ± 0.012
172. RGGGQVLGARVG  0.634 ± 0.017
173. RCEGNGKRASTE  0.632 ± 0.031
174. RHLSRSVSKVLR  0.629 ± 0.06
175. RKKVRKTKKIKK  0.628 ± 0.089
176. RGRAVGVGGGGV  0.626 ± 0.027
177. RIRLNHAMSTVV  0.625 ± 0.019
178. QYKKKEKKQNRT  0.624 ± 0.1
179. QTSASSAALLRP  0.622 ± 0.042
180. RCVFGFGGVVVV  0.622 ± 0.073
181. RFPSSCAPLSPY  0.621 ± 0.029
182. RILPSPVSAGGF  0.62 ± 0.026
183. RINKIKRKKRIK  0.618 ± 0.062
184. RLLKRAVRKIFT  0.61808 ± 0.00049
185. RALPSPRSPLSI  0.616 ± 0.041
186. RCRCPHFLCRFS  0.6165 ± 0.0049
187. RETPPALRSFPV  0.613 ± 0.26
188. RGFKEPLSFKAG  0.613 ± 0.059
189. RGGFVEGFVLVR  0.611 ± 0.073
190. RGARVGKGDACW  0.607 ± 0.069
191. RFGSFVSISRVG  0.603 ± 0.14
192. RLPAPPTVPLPP  0.6 ± 0.042
193. RKIIIINLQKIK  0.586 ± 0.024
194. RDILFIGINIYK  0.585 ± 0.049
195. RCSFSYLPVIQV  0.582 ± 0.006
196. RAIGSRIIIWGL  0.564 ± 0.011
197. RILLIRRKEKYL  0.5578 ± 0.0028
198. RFCIARGSLLDY  0.554 ± 0.025
199. RFPFSFSGFFLL  0.5532 ± 0.0033
200. QYSFFLRSPEVF  0.512 ± 0.038
201. RFPPWVSSIFAF  0.494 ± 0.0082
202. RKKRERIREKKN  0.494 ± 0.043
